From the Human Domainome abundance scans (Beltran et al. 2025)
± gives the uncertainty stated by the source.

B1: Protein S100-G, residues 1 to 79; numbered along this chain, P02633 (parent)
chain: MSAKKSPEELKGIFEKYAAKEGDPNQLSKEELKLLLQTEFPSLLKGPSTLDELFEELDKNGDGEVSFEEFQVLVKKISQ

Variants of: B1
Experiment: abundance fitness (aPCA) (normalised: wild type 0, dead -1); higher = more abundant; growth selection in yeast, the domain comes from the species named
Conditions: Bos taurus
In the case of MSAKKSPEELKGIFEKYAAKEGDPNQLSKEELKLLLQTEFPSLLKGPSTLDELFEELDKNGDGEVSFEEFQVLVKYISQ [K76Y], the abundance fitness is reported as -0.325 ± 0.076. With MSAKKSPEELKGIFEKYAAKEGDPNQLSKEELKLLLQTEFPSLLKGPSTLDELFEELDKNGDGEVSFEEFQVLVKKISE [Q79E] the abundance fitness was 0.272 ± 0.15. For MSAKKSPEELKGIFEKYAAKEGDPNQLSKEELKLLLQTEFPSLLKGPSTLDELFEELDKNGDGEVSFEEFQVLVKKISD [Q79D], the abundance fitness was -0.191 ± 0.14. For MSAKKSPEELKGIFEKYAAKEGDPNQLSKEELKLLLQTEFPSLLKGPSTLDELFEELDKNGDGEVSFEEFQVLVKKISH [Q79H], the abundance fitness was -0.048 ± 0.095. MSAKKSPEELKGIFEKYAAKEGDPNQLSKEELKLLLQTEFPSLLKGPSTLDELFEELDKNGDGEVSFEEFQVLVKKISC [Q79C] gave an abundance fitness of -0.032 ± 0.16. In the case of MSAKKSPEELKGIFEKYAAKEGDPNQLSKEELKLLLQTEFPSLLKGPSTLDELFEELDKNGDGEVSFEEFQVLVKKISA [Q79A], the abundance fitness is reported as 0.008 ± 0.088. In the case of MSAKKSPEELKGIFEKYAAKEGDPNQLSKEELKLLLQTEFPSLLKGPSTLDELFEELDKNGDGEVSFEEFQVLVKKISI [Q79I], the abundance fitness is reported as -0.346 ± 0.13. For MSAKKSPEELKGIFEKYAAKEGDPNQLSKEELKLLLQTEFPSLLKGPSTLDELFEELDKNGDGEVSFEEFQVLVKKISK [Q79K], the abundance fitness was 0.046 ± 0.12. In the case of MSAKKSPEELKGIFEKYAAKEGDPNQLSKEELKLLLQTEFPSLLKGPSTLDELFEELDKNGDGEVSFEEFQVLVKKISL [Q79L], the abundance fitness is reported as -0.017 ± 0.086. Variant MSAKKSPEELKGIFEKYAAKEGDPNQLSKEELKLLLQTEFPSLLKGPSTLDELFEELDKNGDGEVSFEEFQVLVKKISG [Q79G] has an abundance fitness of 0.074 ± 0.12. MSAKKSPEELKGIFEKYAAKEGDPNQLSKEELKLLLQTEFPSLLKGPSTLDELFEELDKNGDGEVSFEEFQVLVKKFSQ [I77F] showed an abundance fitness of 0.051 ± 0.084. Variant MSAKKSPEELKGIFEKYAAKEGDPNQLSKEELKLLLQTEFPSLLKGPSTLDELFEELDKNGDGEVSFEEFQVLVKKQSQ [I77Q] has an abundance fitness of -0.092 ± 0.066. Work on MSAKKSPEELKGIFEKYAAKEGDPNQLSKEELKLLLQTEFPSLLKGPSTLDELFEELDKNGDGEVSFEEFQVLVKKKSQ [I77K] yielded an abundance fitness of -0.148 ± 0.083. For MSAKKSPEELKGIFEKYAAKEGDPNQLSKEELKLLLQTEFPSLLKGPSTLDELFEELDKNGDGEVSFEEFQVLVKKNSQ [I77N], the abundance fitness was -0.025 ± 0.084. MSAKKSPEELKGIFEKYAAKEGDPNQLSKEELKLLLQTEFPSLLKGPSTLDELFEELDKNGDGEVSFEEFQVLVKKTSQ [I77T] gave an abundance fitness of -0.14 ± 0.064. Variant MSAKKSPEELKGIFEKYAAKEGDPNQLSKEELKLLLQTEFPSLLKGPSTLDELFEELDKNGDGEVSFEEFQVLVKKLSQ [I77L] has an abundance fitness of -0.073 ± 0.058. Variant MSAKKSPEELKGIFEKYAAKEGDPNQLSKEELKLLLQTEFPSLLKGPSTLDELFEELDKNGDGEVSFEEFQVLVKKGSQ [I77G] has an abundance fitness of -0.111 ± 0.089. Work on MSAKKSPEELKGIFEKYAAKEGDPNQLSKEELKLLLQTEFPSLLKGPSTLDELFEELDKNGDGEVSFEEFQVLVKKCSQ [I77C] yielded an abundance fitness of -0.136 ± 0.11. Work on MSAKKSPEELKGIFEKYAAKEGDPNQLSKEELKLLLQTEFPSLLKGPSTLDELFEELDKNGDGEVSFEEFQVLVKKMSQ [I77M] yielded an abundance fitness of -0.143 ± 0.075. MSAKKSPEELKGIFEKYAAKEGDPNQLSKEELKLLLQTEFPSLLKGPSTLDELFEELDKNGDGEVSFEEFQVLVKKDSQ [I77D] gave an abundance fitness of -0.17 ± 0.11. For MSAKKSPEELKGIFEKYAAKEGDPNQLSKEELKLLLQTEFPSLLKGPSTLDELFEELDKNGDGEVSFEEFQVLVKKVSQ [I77V], the abundance fitness was -0.158 ± 0.077. In the case of MSAKKSPEELKGIFEKYAAKEGDPNQLSKEELKLLLQTEFPSLLKGPSTLDELFEELDKNGDGEVSFEEFQVLVKKESQ [I77E], the abundance fitness is reported as -0.142 ± 0.1. MSAKKSPEELKGIFEKYAAKEGDPNQLSKEELKLLLQTEFPSLLKGPSTLDELFEELDKNGDGEVSFEEFQVLVKKRSQ [I77R] gave an abundance fitness of -0.179 ± 0.065. In the case of MSAKKSPEELKGIFEKYAAKEGDPNQLSKEELKLLLQTEFPSLLKGPSTLDELFEELDKNGDGEVSFEEFQVLVKKSSQ [I77S], the abundance fitness is reported as -0.165 ± 0.064. MSAKKSPEELKGIFEKYAAKEGDPNQLSKEELKLLLQTEFPSLLKGPSTLDELFEELDKNGDGEVSFEEFQVLVKKWSQ [I77W] showed an abundance fitness of -0.176 ± 0.086. For MSAKKSPEELKGIFEKYAAKEGDPNQLSKEELKLLLQTEFPSLLKGPSTLDELFEELDKNGDGEVSFEEFQVLVKKASQ [I77A], the abundance fitness was -0.169 ± 0.076. In the case of MSAKKSPEELKGIFEKYAAKEGDPNQLSKEELKLLLQTEFPSLLKGPSTLDELFEELDKNGDGEVSFEEFQVLVKKHSQ [I77H], the abundance fitness is reported as -0.155 ± 0.068. With MSAKKSPEELKGIFEKYAAKEGDPNQLSKEELKLLLQTEFPSLLKGPSTLDELFEELDKNGDGEVSFEEFQVLVKKYSQ [I77Y] the abundance fitness was -0.104 ± 0.073. MSAKKSPEELKGIFEKYAAKEGDPNQLSKEELKLLLQTEFPSLLKGPSTLDELFEELDKNGDGEVSFEEFQVLVKKILQ [S78L] showed an abundance fitness of -0.188 ± 0.28. In the case of MSAKKSPEELKGIFEKYAAKEGDPNQLSKEELKLLLQTEFPSLLKGPSTLDELFEELDKNGDGEVSFEEFQVLVKKIAQ [S78A], the abundance fitness is reported as 0.245 ± 0.41. For MSAKKSPEELKGIFEKYAAKEGDPNQLSKEELKLLLQTEFPSLLKGPSTLDELFEELDKNGDGEVSFEEFQVLVKKIMQ [S78M], the abundance fitness was -0.049 ± 0.44. Variant MSAKKSPEELKGIFEKYAAKEGDPNQLSKEELKLLLQTEFPSLLKGPSTLDELFEELDKNGDGEVSFEEFQVLVKKIGQ [S78G] has an abundance fitness of -0.329 ± 0.47. In the case of MSAKKSPEELKGIFEKYAAKEGDPNQLSKEELKLLLQTEFPSLLKGPSTLDELFEELDKNGDGEVSFEEFQVLVKKIFQ [S78F], the abundance fitness is reported as -0.25 ± 0.27. In the case of MSAKKSPEELKGIFEKYAAKEGDPNQLSKEELKLLLQTEFPSLLKGPSTLDELFEELDKNGDGEVSFEEFQVLVKKIPQ [S78P], the abundance fitness is reported as 0.258 ± 0.41. MSAKKSPEELKGIFEKYAAKEGDPNQLSKEELKLLLQTEFPSLLKGPSTLDELFEELDKNGDGEVSFEEFQVLVKKIYQ [S78Y] showed an abundance fitness of -1.23 ± 0.41.
